Results reported in the supplement of paper PMC10567573.

B1: LRRC45 (parent)
chain: DLSAANEKNLLLQNQVDELERKFR
B2: RHOBTB2 (parent)
chain: LYTGELDENERDLMHIAHIAELLE

Variants of: B1
Experiment: protein stability index of a GFP-peptide fusion (GPS, HEK-293T) (PSI 1-6); higher = more stable
Settings: c terminus: a fixed tail appended
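Further: lentivirally expressed fusions sorted by FACS into six bins by GFP to DsRed ratio, PSI derived from sequencing read proportions per bin multiplied by bin number.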

Variant	protein stability index
DLSAANEKNLLLSNQVDELERKFR [Q13S]	3.98
DLSAANEKNLLLTNQVDELERKFR [Q13T]	4.11
DLSAANEKNLLLQNQVDELEDKFR [R21D]	4.28
DLSAANEKNLFLQNQVDELERKFR [L11F]	4.13
DLSMANEKNLLLQNQVDELERKFR [A4M]	3.49
DLSAANEKNLLLQSQVDELERKFR [N14S]	3.51
DLSAANEKNLLLQNQVDELERKDR [F23D]	5
DLSAAIEKNLLLQNQVDELERKFR [N6I]	3.27
DLSAANEKNLLLQNQVDELPRKFR [E20P]	3.12
DLSAANEKNLLLQNEVDELERKFR [Q15E]	4.7
DLSAANEKNRLLQNQVDELERKFR [L10R]	4.06
DLSAANEKNLLRQNQVDELERKFR [L12R]	3.98
DLSAANEKNLLLQNQVDELEAKFR [R21A]	4.09
DLSAANEKNLLLQNQVDEHERKFR [L19H]	4.12
DLSAANEKNLLLINQVDELERKFR [Q13I]	3.6
DLSAANEKNLLLQNQVTELERKFR [D17T]	2.96
DFSAANEKNLLLQNQVDELERKFR [L2F]	4.54
DLSAANEKNLLLQNQVDELERKER [F23E]	5.34
DLSAANEKNLLLQNQVDELERKFM [R24M]	3.96
DLSAANEKNLLLQNQVDELCRKFR [E20C]	3.73
DRSAANEKNLLLQNQVDELERKFR [L2R]	4.86
DLSAANEKNLNLQNQVDELERKFR [L11N]	4.5
DLSAANEKNLLLQNQVDELERKFH [R24H]	4.31

Variant	protein stability index
DLSAANEKNLLLQNQVDELERKQR [F23Q]	4.29
DLSAANEKNLLLQNQVDEFERKFR [L19F]	3.76
DLSAANEKNLLLQNQVDELERKFW [R24W]	3.52
DLSAANEKNLLYQNQVDELERKFR [L12Y]	4.08
DLSAANEKNLLLQNQVDELEMKFR [R21M]	3.97
DLSAANEKNLLLQNQVDEYERKFR [L19Y]	3.48
DLSAANEDNLLLQNQVDELERKFR [K8D]	4.21
DLSAANEKNLLLQNYVDELERKFR [Q15Y]	2.76
DLSAANEKNLLLQNQVDELERKKR [F23K]	4.33
DLSAANEKNLLLQNTVDELERKFR [Q15T]	3.35
DLSAANEKNLLLQNQVQELERKFR [D17Q]	3.66
DLSAANEKNLYLQNQVDELERKFR [L11Y]	4.2
DLSAANEKNLLKQNQVDELERKFR [L12K]	3.77
DLKAANEKNLLLQNQVDELERKFR [S3K]	4.15
DLSAANEKNLLLQAQVDELERKFR [N14A]	3.95
DLSAANEKNLLLQNQVDEPERKFR [L19P]	3.78
DLSAANEWNLLLQNQVDELERKFR [K8W]	3.6
DLSAANEKNLLLQNQVIELERKFR [D17I]	3.01
DLSAANVKNLLLQNQVDELERKFR [E7V]	3.46
DLSAANEKNLLLQDQVDELERKFR [N14D]	4.54
DLSAANEKSLLLQNQVDELERKFR [N9S]	4.63
DLPAANEKNLLLQNQVDELERKFR [S3P]	4.31
DLSACNEKNLLLQNQVDELERKFR [A5C]	4.42

Variant	protein stability index
DLSAANEKYLLLQNQVDELERKFR [N9Y]	3.67
DLSAANEKNLLDQNQVDELERKFR [L12D]	4.46
DLSAANEKNLLLQIQVDELERKFR [N14I]	3.05
DLSAANEKNLLLPNQVDELERKFR [Q13P]	3.8
DLSAANEKNELLQNQVDELERKFR [L10E]	4.94
DLSAANEKNLLLQNQVDWLERKFR [E18W]	3.36
DLSAANEKNLLLQNQVDSLERKFR [E18S]	3.33
DLSAANEKNLTLQNQVDELERKFR [L11T]	3.86
DLSAANEKNLLLQNQVDELERKFG [R24G]	4.48
DLSAANEKNLLLQNQVDELERKFF [R24F]	3.62
DLSAANEKNLVLQNQVDELERKFR [L11V]	3.96
DLSAHNEKNLLLQNQVDELERKFR [A5H]	4.16
DLSAANEKNGLLQNQVDELERKFR [L10G]	4.77
DLSAANEKNLSLQNQVDELERKFR [L11S]	4.31
DLSAANEKNLLLQNQVPELERKFR [D17P]	3.57
DLGAANEKNLLLQNQVDELERKFR [S3G]	4.54
DLSAANEKNYLLQNQVDELERKFR [L10Y]	3.71
DLSAANEKNLLLQCQVDELERKFR [N14C]	4
DLSAANEKNLLLQNQVDELERVFR [K22V]	3.27
DLSAANNKNLLLQNQVDELERKFR [E7N]	3.01
DLSAANEKNLLLQVQVDELERKFR [N14V]	3.62
DLSAANEKTLLLQNQVDELERKFR [N9T]	4.59
DLSAANEKNLLLQNQVDELERKFS [R24S]	4.25

Variant	protein stability index
DLSKANEKNLLLQNQVDELERKFR [A4K]	4.36
DLSAANEKNLQLQNQVDELERKFR [L11Q]	4.31
DLSAANEKNLLLCNQVDELERKFR [Q13C]	4.03
DLSAANYKNLLLQNQVDELERKFR [E7Y]	2.98
DLSAANHKNLLLQNQVDELERKFR [E7H]	3.94
DLSAATEKNLLLQNQVDELERKFR [N6T]	4.4
DLSAANEKNLLLQNQVSELERKFR [D17S]	3.46
DLSAANEQNLLLQNQVDELERKFR [K8Q]	4.12
DLSAANEYNLLLQNQVDELERKFR [K8Y]	3.63
DLSAANEKNLLLQNQVDILERKFR [E18I]	2.49
DLSAANEKNLLLQNQVDELRRKFR [E20R]	3.06
DLSAINEKNLLLQNQVDELERKFR [A5I]	4.02
DLSAANEKNLLLQNQVDELYRKFR [E20Y]	2.86
DLSAANEKLLLLQNQVDELERKFR [N9L]	3.54
DLSAANEKNLLLQNQVDRLERKFR [E18R]	2.96
DLSAANEKNLLLANQVDELERKFR [Q13A]	4.25
DLSAANEKNLLLQNQVDELELKFR [R21L]	3.74
DLSAANEKNLLLQNQVYELERKFR [D17Y]	3.23
DLSAANEKNLLLQNQVDELERKCR [F23C]	4.01
DLSAANEKNLLLQNQVDELERKFP [R24P]	4.59
DLSAANEKNLLWQNQVDELERKFR [L12W]	3.48
DLSAANEKNLLLQNQVDELERTFR [K22T]	3.71

Variants of: B2
Experiment: as above
Settings: c terminus: a fixed tail appended

Variant	protein stability index
AYTGELDENERDLMHIAHIAELLE [L1A]	2.62
CYTGELDENERDLMHIAHIAELLE [L1C]	2.67
DYTGELDENERDLMHIAHIAELLE [L1D]	3.08
